Measurements reported in paper PMC10213515.

Target: FtsZ (UniProt P0A9A6)
Assay: PL recruitment assay (SUV co-sedimentation by low-speed centrifugation, SDS-PAGE)
Settings: FtsZ 3 μM, GTP 2 mM, FtsA wild type or mutant 2.5 μM, SUVs 250 μg ml-1, ATP 4 mM; parent: 93.7

UniProt P0A9A6, sequence (P0A9A6 whole entry): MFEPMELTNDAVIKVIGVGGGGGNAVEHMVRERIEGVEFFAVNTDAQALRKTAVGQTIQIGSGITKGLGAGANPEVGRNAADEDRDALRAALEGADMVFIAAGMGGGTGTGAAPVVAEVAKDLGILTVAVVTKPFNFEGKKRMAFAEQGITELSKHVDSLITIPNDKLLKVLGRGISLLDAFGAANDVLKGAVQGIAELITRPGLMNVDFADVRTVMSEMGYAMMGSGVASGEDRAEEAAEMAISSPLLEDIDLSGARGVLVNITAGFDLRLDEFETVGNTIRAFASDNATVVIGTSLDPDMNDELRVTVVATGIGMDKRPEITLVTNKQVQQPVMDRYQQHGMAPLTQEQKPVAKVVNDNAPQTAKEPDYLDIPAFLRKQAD

response | Substance
95.3 % of total | FtsA wild type (from UniProt P0ABH0) A188V
83.8 % of total | FtsA wild type (from UniProt P0ABH0) E14R
97.2 % of total | FtsA wild type (from UniProt P0ABH0) S84L
41.1 % of total | FtsA wild type (from UniProt P0ABH0) Y375A
